Laboratory results: patent US20070293656A1, “COLLAGEN BINDING PEPTIDES” (Epix Pharmaceuticals, Inc., priority 2005, published 2007)
Bridge positions count the residues as written; N and C are the ends. Square brackets hold non-standard residues; d marks the D form. Primed or numbered codes have the meaning given here. Ends that are not written are not given here. Gd^T″ = GdDTPA-thiourea

Key:
[1] = target: human collagen type I (acid soluble, extracted from placenta, Sigma C7774) (human) (UniProt P02452); test: dried collagen assay
Sequence of human collagen type I (acid soluble, extracted from placenta, Sigma C7774) (human) (P02452 162-1218 limits assumed, chain 1 of 2): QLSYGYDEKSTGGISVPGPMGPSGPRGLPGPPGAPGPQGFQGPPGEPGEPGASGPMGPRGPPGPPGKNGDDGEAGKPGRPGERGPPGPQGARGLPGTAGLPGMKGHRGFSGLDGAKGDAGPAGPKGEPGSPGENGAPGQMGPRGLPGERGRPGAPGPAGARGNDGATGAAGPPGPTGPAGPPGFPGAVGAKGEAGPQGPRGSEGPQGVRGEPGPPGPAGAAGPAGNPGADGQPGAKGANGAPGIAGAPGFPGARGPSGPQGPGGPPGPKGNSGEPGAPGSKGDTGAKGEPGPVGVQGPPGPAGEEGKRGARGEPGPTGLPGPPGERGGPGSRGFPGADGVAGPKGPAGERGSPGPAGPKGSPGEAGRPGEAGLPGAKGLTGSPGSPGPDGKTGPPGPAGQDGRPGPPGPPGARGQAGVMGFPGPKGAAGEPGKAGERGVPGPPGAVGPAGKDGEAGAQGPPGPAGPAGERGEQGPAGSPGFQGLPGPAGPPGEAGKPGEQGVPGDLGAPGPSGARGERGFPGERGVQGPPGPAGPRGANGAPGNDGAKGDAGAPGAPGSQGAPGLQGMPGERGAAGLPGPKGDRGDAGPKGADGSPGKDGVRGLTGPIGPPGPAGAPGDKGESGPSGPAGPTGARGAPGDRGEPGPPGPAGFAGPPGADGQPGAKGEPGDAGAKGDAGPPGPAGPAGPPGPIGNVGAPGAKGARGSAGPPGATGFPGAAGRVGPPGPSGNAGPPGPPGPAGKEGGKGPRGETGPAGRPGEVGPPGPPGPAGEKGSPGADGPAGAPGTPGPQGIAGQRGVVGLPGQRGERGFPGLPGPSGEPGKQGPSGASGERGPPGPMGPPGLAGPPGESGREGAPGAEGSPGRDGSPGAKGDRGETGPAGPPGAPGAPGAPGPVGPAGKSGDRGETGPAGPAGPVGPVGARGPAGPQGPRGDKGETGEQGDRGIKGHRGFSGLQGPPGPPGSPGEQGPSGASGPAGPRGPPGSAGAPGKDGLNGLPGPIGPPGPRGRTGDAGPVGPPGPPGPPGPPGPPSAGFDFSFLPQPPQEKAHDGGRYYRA
Sequence of human collagen type I (acid soluble, extracted from placenta, Sigma C7774) (human) (P08123 80-1119 limits assumed, chain 2 of 2, further chain): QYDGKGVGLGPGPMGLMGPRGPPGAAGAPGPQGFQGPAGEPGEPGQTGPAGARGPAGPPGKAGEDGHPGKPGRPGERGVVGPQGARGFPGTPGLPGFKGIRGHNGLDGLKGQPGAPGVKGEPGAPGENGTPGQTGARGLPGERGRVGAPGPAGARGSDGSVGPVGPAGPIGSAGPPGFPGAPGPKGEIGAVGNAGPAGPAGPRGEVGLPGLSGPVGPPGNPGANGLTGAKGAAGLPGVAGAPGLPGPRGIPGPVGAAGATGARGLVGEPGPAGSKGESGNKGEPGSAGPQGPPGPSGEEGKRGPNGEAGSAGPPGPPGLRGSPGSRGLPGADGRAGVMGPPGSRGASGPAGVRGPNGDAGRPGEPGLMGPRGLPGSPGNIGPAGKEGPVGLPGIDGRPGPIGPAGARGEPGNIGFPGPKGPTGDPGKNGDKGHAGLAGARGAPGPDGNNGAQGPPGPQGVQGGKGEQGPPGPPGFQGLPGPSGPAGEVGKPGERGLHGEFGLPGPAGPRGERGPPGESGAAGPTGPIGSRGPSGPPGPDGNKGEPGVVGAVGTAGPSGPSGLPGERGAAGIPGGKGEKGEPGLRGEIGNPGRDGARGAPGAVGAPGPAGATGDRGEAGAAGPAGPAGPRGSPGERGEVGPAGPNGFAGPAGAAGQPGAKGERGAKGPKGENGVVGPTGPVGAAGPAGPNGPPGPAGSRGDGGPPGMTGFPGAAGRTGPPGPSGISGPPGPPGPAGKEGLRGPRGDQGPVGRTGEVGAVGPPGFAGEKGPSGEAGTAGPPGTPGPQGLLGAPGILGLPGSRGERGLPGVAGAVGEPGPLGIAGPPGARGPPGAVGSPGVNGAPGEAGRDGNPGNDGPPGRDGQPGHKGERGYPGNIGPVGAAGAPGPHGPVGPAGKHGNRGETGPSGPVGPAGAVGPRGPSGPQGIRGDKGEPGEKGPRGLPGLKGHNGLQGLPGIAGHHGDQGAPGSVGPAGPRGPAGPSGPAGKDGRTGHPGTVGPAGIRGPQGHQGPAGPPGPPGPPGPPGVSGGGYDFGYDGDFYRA

[2] = target: T1, human collagen type I (acid soluble, extracted from placenta, Sigma C7774) (human, UniProt P02452 162-1218; P08123 80-1119); test: dried collagen assay
T1 construct: gelled and dried as a fibril film in the assay; also called dried human collagen; h-Collagen
T1 sequence (P02452 162-1218 limits assumed, chain 1 of 2): as the sequence (P02452 162-1218 limits assumed, chain 1 of 2) above
T1 sequence (P08123 80-1119 limits assumed, chain 2 of 2): as the sequence (P08123 80-1119 limits assumed, chain 2 of 2, further chain) above
Procedure: An additional 90 μL is reserved in a HPLC glass vial as a measure of the total concentration.

Row | Binder | % bound [1] [%] | % bound [2] [%]
1 | GQWHCTTDFPHXYCLYG (not fully specified; Gd^T-GQWHCTTDFPH-Dpr-YCLYG) [Comp ID 886] | 8 | 
2 | SWSCGGDHNAWKCQYS (disulfide 4-13 (inferred)) [SEQ ID NO: 36] | 7 | 
3 | GQWHCTTRFPHHRCLYG (not fully specified; Gd^T-GQWHCTTRFPHHrCLYG) [Comp ID 902] | 7 | 
4 | {Gd^T″}-GQWHCTTRFPHHYCLYG[dK](Gd^T″) (disulfide 5-14 (inferred)) [Comp ID 808] | 25 | 
5 | GQWHCTTDYPHHYCLYG (not fully specified; Gd^T-GQWHCTTD-Y(3-Cl)-PHHYCLYG) [Comp ID 895] | 7 | 
6 | PWWCHEMPSMCFGF (disulfide 4-11 (inferred)) [SEQ ID NO: 3] | 2 | 
7 | GQWHCTTRFPHHYCAYG (not fully specified; Gd^T-GQWHCTTRFPHHYCAYG) [Comp ID 855] | 27 | 
8 | PWTCSGDEYAWHCNYE (Gd^G-PWTCSGDEYAWHCNYe) [Comp ID 824] | 12 | 
9 | GWSCHGDAADWPCQWS (disulfide 4-13 (inferred)) [SEQ ID NO: 38] | 6 | 
10 | GWQCSGDASVWNCDWI (disulfide 4-13 (inferred)) [SEQ ID NO: 39] | 6 | 
11 | GWQCFGASDWHCTWV (disulfide 4-12 (inferred)) [SEQ ID NO: 8] | 9 | 
12 | GWFCKLVDGNWECSTK (disulfide 4-13 (inferred)) [SEQ ID NO: 53] |  | 12
13 | LWNCHGTDANWKCVLN (disulfide 4-13 (inferred)) [SEQ ID NO: 37] | 7 | 
14 | {Gd^T″}-DWTCS[dY]DEYTWHCNYE (disulfide 4-13 (inferred)) [Comp ID 829] | 20 | 
15 | GQWHCTTRFPHHTCLYG (not fully specified; Gd^T-GQWHCTTRFPHHtCLYG) [Comp ID 905] | 6 | 
16 | SWNCHWRNQGWLCSGG (disulfide 4-13 (inferred)) [SEQ ID NO: 55] |  | 12
17 | MWNCTMTKSGWRCFEK (disulfide 4-13 (inferred)) [SEQ ID NO: 54] |  | 12

More lines, now with the values ahead:

Row | % bound [1] [%] | % bound [2] [%] | Binder
18 |  | 3 | FWRCALLDGHWQCTDH (disulfide 4-13 (inferred)) [SEQ ID NO: 70]
19 |  | 9 | HWSCYLGDNGWNCHDR (disulfide 4-13 (inferred)) [SEQ ID NO: 62]
20 |  | 1 | SWHCALVENSWQCSEA (disulfide 4-13 (inferred)) [SEQ ID NO: 73]
21 |  | 11 | RWTCDLQRGDWQCSTI (disulfide 4-13 (inferred)) [SEQ ID NO: 57]
22 | 3 |  | FSECVWVNAYQCEYF (disulfide 4-12 (inferred)) [SEQ ID NO: 113]
23 |  | 3 | HWQCGEKMSFWSCELV (disulfide 4-13 (inferred)) [SEQ ID NO: 69]
24 |  | 10 | GWVCMMRETDWNCSI (disulfide 4-13 (inferred)) [SEQ ID NO: 58]
25 | 7 |  | KWECVHTKGEWYCETK (disulfide 4-13 (inferred)) [SEQ ID NO: 65]
26 |  | 11 | SWNCHMIRNEWRCTGH (disulfide 4-13 (inferred)) [SEQ ID NO: 56]
27 |  | 2 | SWYCDWDDRKGWMCGSD (disulfide 4-14 (inferred)) [SEQ ID NO: 86]
28 |  | 1 | HWTCDQAKGGAWSCSST (disulfide 4-14 (inferred)) [SEQ ID NO: 87]
29 | 5 |  | WQVCADSPGVITYCYTY (disulfide 4-14 (inferred)) [SEQ ID NO: 98]
30 |  | 3 | LWTCSMDRNYDWVCGEK (disulfide 4-14 (inferred)) [SEQ ID NO: 82]
31 |  | 1 | FGACDIFPTFHTCPGV (disulfide 4-13 (inferred)) [SEQ ID NO: 76]
32 |  | 8 | NWYCSQALDNWSCKLR (disulfide 4-13 (inferred)) [SEQ ID NO: 63]
33 |  | 3 | HWSCDLAMDNEWFCSTK (disulfide 4-14 (inferred)) [SEQ ID NO: 84]
34 |  | 10 | HWQCRLTDYGWNCDER (disulfide 4-13 (inferred)) [SEQ ID NO: 59]
35 |  | 3 | GWTCSQPGANVWNCTMQ (disulfide 4-14 (inferred)) [SEQ ID NO: 85]
36 |  | 3 | SWHCALMGSRWVCGQN (disulfide 4-13 (inferred)) [SEQ ID NO: 71]
37 |  | 3 | GWACNTTSKGDWECTNL (disulfide 4-14 (inferred)) [SEQ ID NO: 83]
38 |  | 9 | KWSCYMVDHQWYCREF (disulfide 4-13 (inferred)) [SEQ ID NO: 61]
39 |  | 1 | EWHCVFIQGDWLCNSG (disulfide 4-13 (inferred)) [SEQ ID NO: 72]
40 |  | 3 | QWFCEMDEYGKWNCGMM (disulfide 4-14 (inferred)) [SEQ ID NO: 81]
41 |  | 10 | EWHCVLNDFRWTCGGD (disulfide 4-13 (inferred)) [SEQ ID NO: 60]
42 |  | 8 | TWICSHNDKGWTCGDQ (disulfide 4-13 (inferred)) [SEQ ID NO: 64]
